The values that follow come from patent US20130217582, “Library Compositions and Methods for Acyclic Identification of Aptamers” (published 2013).

The target of the data set is Coagulation factor IXa (FIXa) (Homo sapiens, UniProt P00740;P00740 P00740:47-191,P00740:227-461). As to the kind of experiment: EMSA; estimated by mobility shift compared to a known FIXa aptamer; native PAGE 4 C; T7 transcript starts with GG before F5. The settings on record: tags: Haematologic Technologies; immobilized on con-A beads for partitioning; putative G/U quadruplex.
Chain of Coagulation factor IXa (FIXa) (P00740 47-191, chain 1 of 2): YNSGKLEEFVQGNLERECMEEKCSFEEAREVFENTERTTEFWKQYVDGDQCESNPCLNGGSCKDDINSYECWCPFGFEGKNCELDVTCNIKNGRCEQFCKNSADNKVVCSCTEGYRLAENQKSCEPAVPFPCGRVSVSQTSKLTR
Chain of Coagulation factor IXa (FIXa) (P00740 227-461, chain 2 of 2): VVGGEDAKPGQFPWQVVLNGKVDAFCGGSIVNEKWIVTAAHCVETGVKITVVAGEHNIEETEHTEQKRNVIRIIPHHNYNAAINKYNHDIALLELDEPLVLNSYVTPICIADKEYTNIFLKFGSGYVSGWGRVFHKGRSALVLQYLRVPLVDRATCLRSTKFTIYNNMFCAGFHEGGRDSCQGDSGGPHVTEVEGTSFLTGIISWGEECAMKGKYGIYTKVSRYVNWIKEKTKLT

B1: FIXa aptamer rank 2 (SEQ 114/151) (ssRNA)
RNA: ACGACGCUCUUCCGAUCUAUGGAGGGCAGCCCGGUAGUCGCCCACGGGGAACGCGUCAAGCUAACGGAGCUCGUAUGC
Turning to B1, the equilibrium dissociation constant (Kd) (as a rule, the equilibrium constant for the complex coming apart) was roughly 220 nM.

B2: FIXa aptamer rank 3 (SEQ 122/152) (ssRNA)
RNA: ACGACGCUCUUCCGAUCUAUGGUCAUACGCGCAGGCUGGAGGUAUUACCCCCCGGGCAAGCUAACGGAGCUCGUAUGC
As for B2, the dissociation constant (Kd) is roughly 700 nM.

B3: FIXa aptamer rank 1 (SEQ 133/150) (ssRNA)
RNA: ACGACGCUCUUCCGAUCUAUGGUUCCAGUCGGUGAACUUCCUGAGUCCGGUGUGUGCAAGCUAACGGAGCUCGUAUGC
As to B3, the Kd was roughly 220 nM.
